Reference: the nanobody polyreactivity screen of Harvey et al. (2022)

Assay: yeast display, Sf9 membrane polyspecificity reagent, FACS + sequencing; frameworks hold sequencing errors
Method in brief: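 After 36–48 hours of galactose induction, yeast (Saccharomyces cerevisiae BJ5465) displaying a synthetic nanobody library were stained at 4 °C for 1 hour with 10% biotinylated, detergent-solubilized Sf9 membrane reagent. Streptavidin microbeads enriched the stained cells before FACS sorting into low and high (top ~1%) gates on anti-HA and streptavidin fluorescence. Each clone's polyreactivity label reflects its gate of origin.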

Sequence | polyreactivity (PSR sort gate)
QVQLVESGGGLVQAGGSLRLSCAASGSTFGLYAMGWYRQAPGKEREFVAAISYSGSSTYYADSVKGRFTISRDNAKNTVYLQMNSLKPSDTAVYYCAARRSEHGYTYWGQGSQVTVSS | high polyreactivity
QVQLVESGGGLVQAGGSLRLSCAASGSIFTWYAMGWSRPAPGKERELVAAITRGGSTYADSVKGRFTISRDNAKNTVYLQMNSLKPEDSAVYYCNAVYGVYDFNYWGQGTQVTVSS | low polyreactivity
QVQLVESGGGLVQAGGSLRLSCAASGRIFGTNALGWYRQAPGKERELVATITRGGGNTYYADSVKGRFTISRDNAKNTVYLQMNSLKPEDTAVYYCAAKFHRFAWYSHYDYWGQGTQVTVSS | low polyreactivity
QVQLVESGGGLVQAGGSHRLSCAASGGTFRSNAMGWYRQAPGKERELVAAITSNGGRTYYADSVKGRFTISRDNAKNTVYLQMNSLKPEDTAVYYCAALGGYRRPLYGYDYWGQGTQVTVSS | high polyreactivity
QVQLVESGGGLVQAGGSHRLSCAATGLTFAYYDMGWYRQAPGKERELVAAITSGGTTNYADSVKGRFTISRDNAKNTVYLQMNSLKPEDTAVYYCNADYYSRIVGVRIYDYWGQGTQVTVSS | low polyreactivity
QVHLVESGGGLVQAGGSLRLSCAASGSTFFYAMGWYRQAPRKERELVAAISWIDSLTYYADSVKGRFTISRDNEKITVYLQMNILKAEDTAFYYCAAEGQNEGYDYWGQGSQVTVSS | high polyreactivity
QVQHVESGGGLVQAGGSLRLSCAASGSTQTRNPMGWYRKAPGKERELVAAITQRGGSTYYADSVKGRFTISRDNAKNTVYLQMNSLKPEDTAVYYCAKVPSVKYRSIWVLPEYGWGQGTQVTVSS | low polyreactivity
QVQLVYSGGGLVQAGGSLRLSCAASGRTFARYAMGWYIQAPWKERELVAAITRSGGSTTYADSVKGLFTISRDNAKNTVYVQLYSLKPVYTAVYFCASSTSLRLDYWGQGTQVTVSS | high polyreactivity
QVQLVESGGGLVQAGGSLRLSCAASGRIFRRYTMGWYRQAPGKERELVAAISSGGTTYYADSVKGRFTISRDNAKNTVYLQMNSLKPEDTAVYYCAAPWRSSIPHYEYWGQGTQVTVSS | high polyreactivity
QVQLVESGGGLVQAGGSLRLSCAASGSIFLANAMGWYRQAPGKERELVAGISSSVTTNYADSVKGRFTISRDNAKNTVYLQMNSLKPEDTAVYYSNAVYGVYDFNYWVQGTQVTVSS | low polyreactivity
QVQLVESGGGLVQAGGSLRLSCAASGRIYKYYAMGWYRQAPGKETELVAAISISGTNTYYADSVKGRFTISRDNAKNTVYLQMNSLKPEDTAVFYCAARQYTRGYEREYWGQGTQVTVSS | high polyreactivity
QVQLVESGGGLVQAGGSLRLSCAASGGPFTYYTMGCYRQAPGKERELVAAISTGGRTYYADSVKGRFTISRDNAKNTVYLQMNCLKAEATAVYYCYPLYDETDVLGEFDYWGQGTQVTVSS | low polyreactivity
QVQLVESGGGLVQAGGSLRLSCAASGRIFGVYAMGWYRQAPGKERELVAAIYSGSSTYYADSVKGRFTISRDNAKNTVYLQMNSLKPEDTAVYYCNADTPYWVRWKYDYWGQGTQVTVSS | low polyreactivity
QVQLVESGGGLVQAGGSLRLSCAASGSYFTYNRMGRYRQAPGKEREFVAANTWTGGSTYADSVKGRFTISRDNAKYTVYLQMNSLKPEDTAVYYCAAVRRFSWYTPVTTRRYYYWGQGTQVTVSS | high polyreactivity
QVQLVESGGGLVQAGGSLRLSCAASGRIFYYYTMGWYRPAPGKERELVARITGLTGRTYYADCVKGRFTISRDNGKNTVYLQMNSLKPEDTAVYYCNARYFRHYDYWGQGTQGTVSS | high polyreactivity
QVQLVESGGGLVQAGGSLRLSCAASRLTFQQYAMGWYRQAPGKERELVAAITSDGASTNYADSVKGRFTISRDNAKNTVYLQMNSLKPEDTAVYYCAARRSSRQYRYDYWGQGTQVTVSS | high polyreactivity
QVQLVESGGGLVQAGGSLRLICAASGTIFSDNEMGRYRQAPGKEREFVADISSDGSTYYADSVKGRFTISRDNAKNTVYLQMNSLKPEDTAVYYCDADPIFSLYYHYGHFDYWGQGTQVTVSS | low polyreactivity
QVQLVESCGGLVQAGGSLRLICAASGRNFGHNAMGWYRQAPGKEREFVAAITYSGVRTFFADSVKGRFTISRDNAKNTVYLQMNCLKPEDTAVYYCATDWRRYYDYWGQGTQVTVSS | low polyreactivity
QVQLVESGGGLVQAGGSLRLSCAASGSTFAIYAMGWYRPAPGKERELVAAITLRTDSTYYADSVKGRFTISRDNAKNTVYLQMNSLKPEDTAVYYCNTVAYMRRFDKWGMNYWGQGTQVTVSS | low polyreactivity
QVQLVESGGGLVQAGGSLRLSCAASGSIFVGNAMGWYRQAPGKEREFVASISWDGTTYYADSVKGRFTISRDNAKNTVYLQMNSLKPEDTAVYYCAADVSTYGAQATEGTDLEYDYWGQGTLVTVSS | low polyreactivity
QVQLVESGGGLVQAGGSLRLSCAASGRTFGANAMGWYRQAPGKERELVAAISSSDDSTYYADSVKGRFTISRDNAKNTVYLQMNSLKPEDTAVYYCAAEDVYPQLDYWGQGTLVTVSS | low polyreactivity
QVQLVESGGGLVQAGGSLRLSCAASGSTFAQNAMGWYRQAPGKEREFVAAITGTVGSTYYADSVKGRFTISRDNAKNTVYLQMNSLKPEDTAVHYCAVVHVFYAVSYFSFYTYDYWGQGTQVTVSS | low polyreactivity

Sequence | polyreactivity (PSR sort gate)
QVQLVESGGGLVQAGGSHRLSCAASGSIFVYNAMGCYIQAPGKERELVAGITFIGGSTYYADSVKGRFTISRDNAKNTVYLQMNSLKPEDTAVYYCNADVAPGIFYGYDSWGQGTQVTVSS | low polyreactivity
QVQLVESGGGLVQAGGSLRLSCAASGLTFDGNTMGWYRQAPGKERELVAAISFDGGNTYADSVNGRFTISRDNAKNTVYLQMNSLKPEDTAVYYDYWGQGTQVTVSS | low polyreactivity
QVQLVESGGGLVQAGGSLRLSCAASGITFNQYVMGWYRQAPGKESELVAAISRSGATTYYADSVKGRFTISRDNAKNTVYLQMNSLKPEDTAVYYCAVRGSVSYTRYGYWGQGTQVTVSS | high polyreactivity
QVQLVESGGGLVQAGGSLRLSCAASGYTFYRYAMGWYRQAPGKERELVARISRSGGSTFYADSVKGRFTISRDNAKNTVYLQMNSLKPEDTAVYYCNAKQYSPYYLVIYHYWGQGTQVTVSS | high polyreactivity
QVQLVESGGGLVQAGGSLRLSCAASGRIFFYYAMGWYRQAPGKERELVATISYSGGGTYYADSVKGRFTISRDNAKNTVYLQMNSLKPEDTAVYYCNARWGTPYYIQDFDYWGQGTQVTVSS | low polyreactivity
QVQLVESGGGLVQAGGSLRLSCAASGSIFAAYAMGWYRQAPGKERELVAAISLDDGSTYADSVKGRFTISRDNAKNTVYLQMNSLKPEDTAVYYCNARYKSRLYPRYDYWGQGTQVTVSS | high polyreactivity
QVQLVESGGGLVQAGGSLRLSCAASGSIFGDNAMGWYRQAPGKERELVASITWSGGSTFYADSVKGRFTISRDNAQITVYLQMNSLKPEDTAVYYCAADTAEYLYDMDYWGQGTQVTVSS | low polyreactivity
QVQLVESGGGLVQAGGSLRLSCAASGSTFSAYAMGWYRQAPGKERELVAAISKRGGSTYYADSVKGRFTISRDNAKNTVYLQMNSLKPEDTAVYYCNKESLYREFDYWGQGTQVTVSS | low polyreactivity
QVQLVESVGGLVQAGGSLRLSCASSGSTFGFNAIGWYRKAPVKERELVAANTFSGGTTYYADSVKGRFTISRDNAKNTVYLQMNSLKPEDTAGYYCNAEWWYQYTGPFSPWGEDYWGQGTQVTVSS | low polyreactivity
QVQLVESGGGLVQAGGSLRLSCAASGITILWNVMGWYRQAPGKERELVATITSIGGITNYADSVKGRFTISRDNAKNTVYLQMNSLKPEDTAVYYCARDDRDIRGVSGREGFLYDYWGQGTQVTVSS | low polyreactivity
QVQLVESGGGLVQAGGSLRLSCAASGRTFYIYAMGWYRQAPGKERELVAAITWSGGSSTYYADSVKGRFTISRDNAKNTVYLQMNSLKPEDTAVYYCAAETHYYWYEQYDYWGQGTQVTVSS | high polyreactivity
QVQLVESGGGLVQAGGSLRLSCAASGITFVGNAMGWYRQAPGKERELVAGIRGNGGSTYYADSVKGRFTISRDNAKYTVYLQMNSLKPEDTAVYYCAAAAYYADFDYWGQGTQVTVSS | low polyreactivity
QVQLVESGGGLVQAGGSLRLSCAASGRTIPIYAMGWYRQAPGKERELVAAITRGGRTNYADSVKGRFTISRDNAKNTVYLQMNSLKPEDTAVYYCAARTYGTYLYAEYDYWGQGTQVTVSS | high polyreactivity
QVHLQESRGGLVQAGGSLRLSCAASGIIFDNPNMGCYRQAPGKERELVATINSGATTNYADSVKGRFTISRDNAKNTVYLQMNSLIPEDTAVYYCAVDLSPTYFYYWGQGTQVTVSS | high polyreactivity
QVQLVESGGGLVQAGGSLRLSCAASGFTFLYNARGWYIQAPGKERELVASINSGGSTNYADSVKGRFTISRDNAKNTVYLQKNSLKPEDTAVYYWNAKRHVRKGDYWGQGTQVTVSS | low polyreactivity
QDQLVDSGGGLVQAGGSLRLSCAASGSIFTPNAMGWYRQAPGKERELVAAISWSGGGTYYADSVKGRFTISRDNAKNTVYLQMNSLKPEDTAVYYCNAEYTKTGALVIPYTYYYAEDYWGQGTQVTVSS | low polyreactivity
QVQLVESGGGLVQAGGSLRLSCAASGFTFHYYVMGWYRQAPGKERELVAAINAGGVSTYYADSVKGRFTISRDNAKNTVYLQMNSLKPEDTAVYYCNARVRVRLGRNWSSYYYWGQGTQVTVSS | high polyreactivity
QVQLVESGGGLVQAGGSLRLSCAASGRIFYAYAMGWYRQAPGKERELVAGISRGSSTNYADSVKGRFTISRDNAKNTVYLQMNSLKPEDTAVYYSAADVHRRGRYHSTYDYWGQGTQVTVSS | low polyreactivity
QVQLVESVGGLVQAGGSLRLSCAASGSIFAVNAMGWYRKAPGTERELVAAITSSGVDTYYADSVKGRFTISRDNAKNTVYLQMNSLKPEDTAVYYCAADDQLNWYDYWGQGTQVTVSS | low polyreactivity
QVQLVESGGGLVQAGGSLRLSCAASGNTFTWYTIGWYRQAPGKERELVAVSTSDGSTYYADSVKGRFTISRDNAKHTVYLQMNSLKPEDTAVYYCTAGGGTNYGSGYWYGYYYWGQGTQVTVSS | low polyreactivity
QVQLVESGGGLVQAGGSLRLSCAASGFTLYSYVMGWYRQAPGKERELVAAISRSGVSTHYADSVKGRFTISRDNAKNTVYLQMNSLKPEDTAVYYCNKVYYYVGTLDYWGQGTQVTVSS | high polyreactivity
